T1: human glycophorin A on human red blood cells or red blood cell membranes (human, UniProt P02724 20-150)
T1 construct: whole, on cells; also called hRBC; human RBC membranes
T1 sequence (looked up): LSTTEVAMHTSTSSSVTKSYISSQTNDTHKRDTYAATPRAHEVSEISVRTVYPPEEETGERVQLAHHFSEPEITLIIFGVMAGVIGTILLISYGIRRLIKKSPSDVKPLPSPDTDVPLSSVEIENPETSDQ

T2: human glycophorin A on human red blood cells (human, UniProt P02724 20-150)
T2 construct: whole, on cells; also called human GPA; huGPA
T2 sequence (looked up): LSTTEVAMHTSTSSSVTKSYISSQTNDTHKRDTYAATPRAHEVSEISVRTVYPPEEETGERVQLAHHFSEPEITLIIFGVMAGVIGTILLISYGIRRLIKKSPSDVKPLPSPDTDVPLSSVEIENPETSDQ

T3: human glycophorin A in the red blood cell membrane (human, UniProt P02724 20-150)
T3 construct: whole, on cells; used for intact RBC, isolated RBC membranes and transfected cells; the assay field tells which; also called GPA; hGPA
T3 sequence (looked up): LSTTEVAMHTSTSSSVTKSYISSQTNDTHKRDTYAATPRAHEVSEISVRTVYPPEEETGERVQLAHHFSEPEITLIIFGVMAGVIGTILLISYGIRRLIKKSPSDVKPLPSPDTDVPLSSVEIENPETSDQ

T4: recombinant human GPA ectodomain (human, UniProt P02724 20-91)
T4 construct: also called recombinant hGPA ECD; recGPA
T4 sequence: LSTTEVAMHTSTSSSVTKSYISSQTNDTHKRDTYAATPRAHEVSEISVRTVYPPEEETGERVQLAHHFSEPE

T5: purified human glycophorin A protein (Sigma, cat # G5017) (human, UniProt P02724 20-150)
T5 construct: mature; also called Sigma hGPA; Sigma GPA
T5 sequence (looked up): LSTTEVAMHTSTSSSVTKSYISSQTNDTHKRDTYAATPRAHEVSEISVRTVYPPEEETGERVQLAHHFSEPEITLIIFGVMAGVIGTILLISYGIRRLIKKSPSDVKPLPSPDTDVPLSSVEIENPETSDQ


Legend:
[1] = target: T1, human glycophorin A on human red blood …; assay: scFv on intact human RBC, unbound scFv by ELISA; 20 min after 200-fold dilution
Description: (§1) RBC diluted to 1/10th of normal hematocrit were incubated with the set of “Top 10” purified scFv antibodies at a final concentration of 7 ug/ml for 1 hour at room temperature on a rotating shaker after which a sample was taken and the RBC were pelleted by centrifugation and the supernatant was collected. The remaining RBC suspension was diluted 200-fold in PBS buffer and incubated for a total of 2 hours at room temperature on a rotating shaker and samples were removed at 0, 5 min, 20 min, 1 h and 2 h and the RBC pelleted and the supernatant collected. […] The percentage that remains bound after dilution is an indication of the overall strength of the binding to human RBC.

[2] = target: T1, human glycophorin A on human red blood …; assay: scFv on intact human RBC, unbound scFv by ELISA; 60 min after 200-fold dilution
Description: as §1

[3] = target: T1, human glycophorin A on human red blood …; assay: scFv on intact human RBC, unbound scFv by ELISA; 0 min after 200-fold dilution
Description: as §1

[4] = target: T1, human glycophorin A on human red blood …; assay: scFv on intact human RBC, unbound scFv by ELISA; 5 min after 200-fold dilution
Description: as §1

[5] = target: T1, human glycophorin A on human red blood …; assay: scFv on intact human RBC, unbound scFv by ELISA; 120 min after 200-fold dilution
Description: as §1

[6] = target: T1, human glycophorin A on human red blood …; assay: scFv 7 ug/ml on intact human RBC, unbound scFv by ELISA; pre-dilution
Description: as §1

[7] = target: T2, human glycophorin A on human red blood …; assay: partition to human RBC, vWF deficient plasma, 30 min
[8] = target: T2, human glycophorin A on human red blood …; assay: partition to human RBC, vWF deficient plasma, 60 min
[9] = target: T2, human glycophorin A on human red blood …; assay: partition to human RBC, vWF deficient plasma, 5 min
[10] = target: T2, human glycophorin A on human red blood …; assay: partition to human RBC, vWF deficient plasma, 15 min
[11] = target: T2, human glycophorin A on human red blood …; assay: partition to human RBC, vWF deficient plasma, 120 min
[12] = target: T2, human glycophorin A on human red blood …; assay: partition to human RBC, vWF deficient plasma, 1 min
[13] = target: T3, human glycophorin A in the red blood …; assay: ELISA, human RBC membranes;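 note: antibodies bound to isolated human red blood cell membrane ghosts coated on 96-well plates, tested 1.5 h at room temperature, bound antibody quantified with a detection antibody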
Description: In order to evaluate binding of antibodies to GPA in the native context of the red blood cell membrane we made use of isolated red blood cell membranes, also called red blood cells ghosts. These membranes are prepared by first isolating red blood cells from citrated whole blood. Citrated whole blood is layered on to Ficol and centrifuged at low speed for 20 minutes to pellet the red blood cells. The supernatant containing plasma and other blood cells is discarded and the red blood cell pellet is subsequently washed 3 times in 10 cell volumes of phosphate buffered saline (PBS). A 10 ml pellet of purified red blood cells is resuspended in 30 ml of cold low osmorality 20 mM phosphate buffer (pH7.4) and incubated for 30 mins to break open the RBC. After Centrifugation at 10,000 rpm for 30 min at 5° C. the hemoglobin containing supernatant is discarded. To the membrane pellet another 30 ml of 20 mM phosphate buffer is added and the sample centrifuged again at 10,000 rpm for 30 min at 5° C. to pellet the membrane fraction. This wash and centrifugation step is repeated another 4 times. The red blood cell membranes are then resuspended in 20 mL of PBS to achieve an equivalent of approximately 2.5E9 cells/mL and stored frozen at −20° C. Binding of antibodies to RBC ghost can be measured by ELISA in which the RBC ghost suspension (5×10⁶ in 100 ul PBS) was added to each well of flat bottom 96-well ELISA microtiter plates (2HB, Immunolon) and the plates incubated overnight at 4° C. The plates were blocked with Starting blocking buffer (Thermo Fisher) for 2 hours at room temperature (RT). Antibodies or other test molecules were added to each well and incubated for 1.5 hours at RT. After 4 washes 100 ul of an appropriate detection antibody was added to each well and incubated for 1 hour at RT. After 4 washes the detection antibody was measured using appropriate detection reagents.

[14] = target: T4, recombinant human GPA ectodomain; assay: ELISA, rec hGPA ectodomain
[15] = target: T3, human glycophorin A in the red blood …; assay: SPR (Biacore), single cycle kinetics, human RBC membranes on L1 sensor, Fab flowed over
Description: Kinetic analysis of the antibody binding to human red blood cell membranes was also performed using surface plasmon resonance (SPR) using a Biacore instrument. In this assay membranes prepared from human red blood cells were attached to a L1 sensor matrix and antibodies were flowed over the RBC membranes.

[16] = target: T5, purified human glycophorin A protein …; assay: ELISA, native hGPA

Row | Binder | percentage of input scFv antibody bound [1] | percentage of input scFv antibody bound [2] | percentage of input scFv antibody bound [3] | percentage of input scFv antibody bound [4] | percentage of input scFv antibody bound [5] | percentage of input scFv antibody bound [6] | Kd [15] | koff [15] | kon [15] | further results
1 | TPP-7794 scFv with C-terminal 6xHIS tag (scFv) scFv: DIQLTQSPSFLSASVGDRVTITCRASSSVRYIYWFQQKPGKAPKLLIYATSFRQSGVPSRFSGSGSGTEYTLTISSLQPEDFATYYCHQRNSFPYTFGQGTKLEIKGGGGSGGGGSGGGGSGGGGSEVQLVQSGAEVKKPGASVKVSCKASGYTFTTYAIHWVRQAPGQGLEWMGYINPSSGYTRYNPKFKHRVTMTRDKSTSTAYMELRSLRSDDTAVYYCWTGTRDYWGQGTTVTVSSHHHHHH | 85% | 85% | 85% | 85% | 85% | 85% | – | – | – | –
2 | TPP-7797 scFv with C-terminal 6xHIS tag (scFv) scFv: DIQLTQSPSFLSASVGDRVTITCRASSSVRYIYWFQQKPGKAPKLLIYATSFRQSGVPSRFSGSGSGTEYTLTISSLQPEDFATYYCHQRNSFPYTFGQGTKLEIKGGGGSGGGGSGGGGSGGGGSEVQLVQSGAEVKKPGASVKVSCKASGYTFTTYTIHWVRQAPGQGLEWMGYINPSSGYTRYNPKFKGRVTMTRDKSTSTAYMELRSLRSDDTAVYYCWTGRRDYWGQGTTVTVSSHHHHHH | 98% | 99% | 98% | 98% | 97% | 98% | – | – | – | –
3 | TPP-7795 scFv with C-terminal 6xHIS tag (scFv) scFv: DIQLTQSPSFLSASVGDRVTITCRASSSVSYIYWFQQKPGKAPKLLIYATSFLQSGVPSRFSGSGSGTEYTLTISSLQPEDFATYYCHQRNSFPYTFGQGTKLEIKGGGGSGGGGSGGGGSGGGGSEVQLVQSGAEVKKPGASVKVSCKASGYTFTTYTIHWVRQAPGQGLEWMGYINPKSGWTRYNPKFKGRVTMTRDKSTSTAYMELRSLRSDDTAVYYCQTGTRDYWGQGTTVTVSSHHHHHH | 82% | 84% | 100% | 85% | 80% | 100% | – | – | – | –
4 | TPP-9161 FVIII-scFv fusion protein (other, also called PPB 7644) ATRRYYLGAVELSWDYMQSDLGELPVDARFPPRVPKSFPFNTSVVYKKTLFVEFTDHLFNIAKPRPPWMGLLGPTIQAEVYDTVVITLKNMASHPVSLHAVGVSYWKASEGAEYDDQTSQREKEDDKVFPGGSHTYVWQVLKENGPMASDPLCLTYSYLSHVDLVKDLNSGLIGALLVCREGSLAKEKTQTLHKFILLFAVFDEGKSWHSETKNSLMQDRDAASARAWPKMHTVNGYVNRSLPGLIGCHRKSVYWHVIGMGTTPEVHSIFLEGHTFLVRNHRQASLEISPITFLTAQTLLMDLGQFLLFCHISSHQHDGMEAYVKVDSCPEEPQLRMKNNEEAEDYDDDLTDSEMDVVRFDDDNSPSFIQIRSVAKKHPKTWVHYIAAEEEDWDYAPLVLAPDDRSYKSQYLNNGPQRIGRKYKKVRFMAYTDETFKTREAIQHESGILGPLLYGEVGDTLLIIFKNQASRPYNIYPHGITDVRPLYSRRLPKGVKHLKDFPILPGEIFKYKWTVTVEDGPTKSDPRCLTRYYSSFVNMERDLASGLIGPLLICYKESVDQRGNQIMSDKRNVILFSVFDENRSWYLTENIQRFLPNPAGVQLEDPEFQASNIMHSINGYVFDSLQLSVCLHEVAYWYILSIGAQTDFLSVFFSGYTFKHKMVYEDTLTLFPFSGETVFMSMENPGLWILGCHNSDFRNRGMTALLKVSSCDKNTGDYYEDSYEDISAYLLSKNNAIEPRSFSQNGGGGSTGGTGGSSGGGTGSGGGGTGGSGGTDIQLTQSPSFLSASVGDRVTITCRASSSVRYIYWFQQKPGKAPKLLIYATSFRQSGVPSRFSGSGSGTEYTLTISSLQPEDFATYYCHQRNSFPYTFGQGTKLEIKGGGGSGGGGSGGGGSGGGGSEVQLVQSGAEVKKPGASVKVSCKASGYTFTTYAIHWVRQAPGQGLEWMGYINPSSGYTRYNPKFKGRVTMTRDKSTSTAYMELRSLRSDDTAVYYCWTGTRDYWGQGTTVTVSSGGGGSQNPPVLKRHQREITDENQSPRSFQKKTRHYFIAAVERLWDYGMSSSPHVLRNRAQSGSVPQFKKVVFQEFTDGSFTQPLYRGELNEHLGLLGPYIRAEVEDNIMVTFRNQASRPYSFYSSLISYEEDQRQGAEPRKNFVKPNETKTYFWKVQHHMAPTKDEFDCKAWAYFSDVDLEKDVHSGLIGPLLVCHTNTLNPAHGRQVTVQEFALFFTIFDETKSWYFTENMERNCRAPCNIQMEDPTFKENYRFHAINGYIMDTLPGLVMAQDQRIRWYLLSMGSNENIHSIHFSGHVFTVRKKEEYKMALYNLYPGVFETVEMLPSKAGIWRVECLIGEHLHAGMSTLFLVYSNKCQTPLGMASGHIRDFQITASGQYGQWAPKLARLHYSGSINAWSTKEPFSWIKVDLLAPMIIHGIKTQGARQKFSSLYISQFIIMYSLDGKKWQTYRGNSTGTLMVFFGNVDSSGIKHNIFNPPIIARYIRLHPTHYSIRSTLRMELMGCDLNSCSMPLGMESKAISDAQITASSYKTNMFATWSPSKARLHLQGRSNAWRPQVNNPKEWLQVDFQKTMKVTGVTTQGVKSLLTSMYVKEFLISSSQDGHQWTLFFQNGKVKVFQGNQDSFTPVVNSLDPPLLTRYLRIHPQSWVHQIALRMEVLGCEAQDLY | – | – | – | – | – | – | – | – | – | percentage bound to human RBC [7]: 85.9%; percentage bound to human RBC [8]: 86.2%; percentage bound to human RBC [9]: 78.4%; percentage bound to human RBC [10]: 82.9%; percentage bound to human RBC [11]: 84.2%; percentage bound to human RBC [12]: 51.4%
5 | TPP-5348 (Fab, V domains shown, also called VL: (S49A)) VH: EVQLVQSGAEVKKPGASVKVSCKASGYTFTTYTIHWVRQAPGQGLEWIGYINPSSDYTRYNPKFKDRVTLTTDKSTSTAYMELRSLRSDDTAVYYCQTGTRDYWGQGTTVTVSS VL: DIQLTQSPSFLSASVGDRVTITCSAASSVSYIYWFQQKPGKAPKLLIYATSTLPSGVPSRFSGSGSGTEYTLTISSLQPEDFATYYCHQRNSFPFTFGQGTKLEIKR | – | – | – | – | – | – | 25 nM | 0.019 s⁻¹ | 740000 M⁻¹ s⁻¹ | binding by ELISA relative to parental [13]: 1.76; binding by ELISA relative to parental [14]: 1.5; binding by ELISA relative to parental [16]: 1.62
6 | TPP-5350 (Fab, V domains shown, also called VL: (P54Q)) VH: EVQLVQSGAEVKKPGASVKVSCKASGYTFTTYTIHWVRQAPGQGLEWIGYINPSSDYTRYNPKFKDRVTLTTDKSTSTAYMELRSLRSDDTAVYYCQTGTRDYWGQGTTVTVSS VL: DIQLTQSPSFLSASVGDRVTITCSAASSVSYIYWFQQKPGKAPKLLIYSTSTLQSGVPSRFSGSGSGTEYTLTISSLQPEDFATYYCHQRNSFPFTFGQGTKLEIKR | – | – | – | – | – | – | 34 nM | 0.021 s⁻¹ | 610000 M⁻¹ s⁻¹ | binding by ELISA relative to parental [13]: 1.64; binding by ELISA relative to parental [14]: 1.7; binding by ELISA relative to parental [16]: 1.45
7 | Fab papain 6C12-24 (Fab, V domains shown, also called parent: Fab 6C12-24) VH: EVQLVQSGAEVKKPGASVKVSCKASGYTFTTYTIHWVRQAPGQGLEWIGYINPSSDYTRYNPKFKDRVTLTTDKSTSTAYMELRSLRSDDTAVYYCQTGTRDYWGQGTTVTVSS VL: DIQLTQSPSFLSASVGDRVTITCSAASSVSYIYWFQQKPGKAPKLLIYSTSTLPSGVPSRFSGSGSGTEYTLTISSLQPEDFATYYCHQRNSFPFTFGQGTKLEIK | – | – | – | – | – | – | 130 nM | 0.048 s⁻¹ | 370000 M⁻¹ s⁻¹ | –

— patent US20190359687A1 (Bayer, published 2019)
